From patent US20180344812A1 (Scripps Research, published 2018)
Bridges are numbered along the chain shown (N, C = ends). Primed or numbered codes have the meaning given here. Where no end group is shown, it is not given here. [ ]: non-standard residue; d: D form. L1″ = C4 bis(bromoacetamide) staple without lipid, joins two Cys through thioethers; L4″ = octadecanedioic acid-PEG-ornithine staple, joins two Cys through thioethers; L2″ = myristic acid-PEG-ornithine staple, joins two Cys through thioethers; L6″ = as L5, made on Rink amide resin, joins two Cys through thioethers; L1 = C4 bis(bromoacetamide) staple without lipid; L4 = octadecanedioic acid-PEG-ornithine staple; L5 = C18 diacid-Lys-PEG2-ornithine staple; L2 = myristic acid-PEG-ornithine staple; L6 = made as L5 but on Rink amide resin; L11 = not defined here; L12 = not defined here; L13 = not defined here; L7 = not defined here; L8 = not defined here; L9 = not defined here

B1: mTA 22: OXM (B) and L9 (peptide)
peptide: H[dS]QGTFTSDYSKYLDECAAKEFICWLMNTKRNRNNIA
modifications: linker 17-24 via L9; not fully specified; printed as HsQGTFTSDYSKYLDEXAAKEFIXWLMNTKRNRNNIA; reading uncertain
B2: mTA 35: GLP-1/Glucagon (C) and L5 (peptide)
peptide: H[dS]QGTFTSDYSKYLDECAAKEFICWLLRAGPSSGAPPPS
modifications: linker 17-24 via L5
B3: mTA 21: OXM (B) and L8 (peptide)
peptide: H[dS]QGTFTSDYSKYLDECAAKEFICWLMNTKRNRNNIA
modifications: linker 17-24 via L8; reading uncertain; also: printed as HsQGTFTSDYSKYLDEXAAKEFIXWLMNTKRNRNNIA
B4: mTA 15: OXM (B) and L1 (peptide)
peptide: H[dS]QGTFTSDYSKYLDECAAKEFICWLMNTKRNRNNIA
modifications: linker 17-24 via L1″
B5: mTA 17: OXM (B) and L4 (peptide)
peptide: H[dS]QGTFTSDYSKYLDECAAKEFICWLMNTKRNRNNIA
modifications: linker 17-24 via L4″
B6: mTA 34: GLP-1/Glucagon (C) and L4 (peptide)
peptide: H[dS]QGTFTSDYSKYLDECAAKEFICWLLRAGPSSGAPPPS
modifications: linker 17-24 via L4
B7: mTA 28: GLP-1/Glucagon (A) and L2 (peptide)
peptide: H[dS]QGTFTSDYSKYLDSCAAHDFVCWLLRA
modifications: linker 17-24 via L2
B8: mTA 20: OXM (B) and L7 (peptide)
peptide: H[dS]QGTFTSDYSKYLDECAAKEFICWLMNTKRNRNNIA
modifications: linker 17-24 via L7; reading uncertain; also: printed as HsQGTFTSDYSKYLDEXAAKEFIXWLMNTKRNRNNIA
B9: mTA 39: GLP-1/Glucagon (D) and L6 (peptide)
peptide: H[dS]QGTFTSDYSKYLDECAAKEFICWLLNGGPSSGAPPPS
modifications: linker 17-24 via L6
B10: mTA 31: GLP-1/Glucagon (B) and L4 (peptide)
peptide: H[dS]QGTFTSDYSKYLDECAAKEFICWLLRA
modifications: linker 17-24 via L4
B11: mTA 27: GLP-1/Glucagon (A) and L1 (peptide)
peptide: H[dS]QGTFTSDYSKYLDSCAAHDFVCWLLRA
modifications: linker 17-24 via L1
B12: mTA 37: GLP-1/Glucagon (D) and L4 (peptide)
peptide: H[dS]QGTFTSDYSKYLDECAAKEFICWLLNGGPSSGAPPPS
modifications: linker 17-24 via L4
B13: mTA 18: OXM (B) and L5 (peptide)
peptide: H[dS]QGTFTSDYSKYLDECAAKEFICWLMNTKRNRNNIA
modifications: linker 17-24 via L5
B14: mTA 30: GLP-1/Glucagon (B) and L2 (peptide)
peptide: H[dS]QGTFTSDYSKYLDECAAKEFICWLLRA
modifications: linker 17-24 via L2
B15: mTA 24: OXM (B) and L11 (peptide)
peptide: H[dS]QGTFTSDYSKYLDECAAKEFICWLMNTKRNRNNIA
modifications: linker 17-24 via L11; reading uncertain; also: printed as HsQGTFTSDYSKYLDEXAAKEFIXWLMNTKRNRNNIA
B16: mTA 36: GLP-1/Glucagon (C) and L6 (peptide)
peptide: H[dS]QGTFTSDYSKYLDECAAKEFICWLLRAGPSSGAPPPS
modifications: linker 17-24 via L6
B17: mTA 29: GLP-1/Glucagon (B) and L1 (peptide)
peptide: H[dS]QGTFTSDYSKYLDECAAKEFICWLLRA
modifications: linker 17-24 via L1
B18: mTA 26: OXM (B) and L13 (peptide)
peptide: H[dS]QGTFTSDYSKYLDECAAKEFICWLMNTKRNRNNIA
modifications: linker 17-24 via L13; reading uncertain; also: printed as HsQGTFTSDYSKYLDEXAAKEFIXWLMNTKRNRNNIA
B19: mTA 16: OXM (B) and L2 (peptide)
peptide: H[dS]QGTFTSDYSKYLDECAAKEFICWLMNTKRNRNNIA
modifications: linker 17-24 via L2″
B20: mTA 25: OXM (B) and L12 (peptide)
peptide: H[dS]QGTFTSDYSKYLDECAAKEFICWLMNTKRNRNNIA
modifications: linker 17-24 via L12; reading uncertain; also: printed as HsQGTFTSDYSKYLDEXAAKEFIXWLMNTKRNRNNIA
B21: mTA 32: GLP-1/Glucagon (B) and L5 (peptide)
peptide: H[dS]QGTFTSDYSKYLDECAAKEFICWLLRA
modifications: linker 17-24 via L5
B22: mTA 33: GLP-1/Glucagon (B) and L6 (peptide)
peptide: H[dS]QGTFTSDYSKYLDECAAKEFICWLLRA
modifications: linker 17-24 via L6
B23: mTA 19: OXM (B) and L6 (peptide)
peptide: H[dS]QGTFTSDYSKYLDECAAKEFICWLMNTKRNRNNIA
modifications: linker 17-24 via L6″
B24: mTA 38: GLP-1/Glucagon (D) and L5 (peptide)
peptide: H[dS]QGTFTSDYSKYLDECAAKEFICWLLNGGPSSGAPPPS
modifications: linker 17-24 via L5

biological target: human glucagon-like peptide 1 receptor (GLP-1R) (human, UniProt P43220 24-463); experiment: cell-based or functional assay

Row | Binder | EC50, CRE-luciferase reporter in HEK293-GLP-1R-CRE cells
1 | B1 | 40000 pM
2 | B2 | 500 pM
3 | B3 | 120 pM
4 | B4 | 30 pM
5 | B5 | 2000 pM
6 | B6 | 40 pM
7 | B7 | 100 pM
8 | B8 | 17000 pM
9 | B9 | 40 pM
10 | B10 | 30 pM
11 | B11 | 200 pM
12 | B12 | 30 pM
13 | B13 | 200 pM
14 | B14 | 30 pM
15 | B15 | 200 pM
16 | B16 | 300 pM
17 | B17 | 30 pM
18 | B18 | 50 pM
19 | B19 | 40 pM
20 | B20 | 100 pM
21 | B21 | 300 pM
22 | B22 | 50 pM
23 | B23 | 200 pM
24 | B24 | 40 pM

biological target: human glucagon receptor (GCGR) (human, UniProt P47871 26-477); experiment: cell-based or functional assay
Sequence (P47871 26-477): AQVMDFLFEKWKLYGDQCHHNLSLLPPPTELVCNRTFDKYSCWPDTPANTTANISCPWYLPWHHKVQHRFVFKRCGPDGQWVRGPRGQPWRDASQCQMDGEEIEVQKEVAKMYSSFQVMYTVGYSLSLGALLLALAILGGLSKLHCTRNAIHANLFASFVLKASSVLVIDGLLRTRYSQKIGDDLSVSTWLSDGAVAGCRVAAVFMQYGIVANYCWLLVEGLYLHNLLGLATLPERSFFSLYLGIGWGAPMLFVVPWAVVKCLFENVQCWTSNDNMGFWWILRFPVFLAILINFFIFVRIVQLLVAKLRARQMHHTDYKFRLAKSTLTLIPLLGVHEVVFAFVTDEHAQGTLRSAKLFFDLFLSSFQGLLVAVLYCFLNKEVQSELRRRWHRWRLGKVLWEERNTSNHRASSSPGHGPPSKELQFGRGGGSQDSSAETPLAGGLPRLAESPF

Row | Binder | EC50, CRE-luciferase reporter in HEK293-GCGR-CRE cells
25 | B1 | 14000 pM
26 | B2 | 1000 pM
27 | B3 | 700 pM
28 | B4 | 200 pM
29 | B5 | 3000 pM
30 | B6 | 400 pM
31 | B7 | 100 pM
32 | B8 | 5400 pM
33 | B9 | 300 pM
34 | B10 | 120 pM
35 | B11 | 40 pM
36 | B12 | 200 pM
37 | B14 | 50 pM
38 | B15 | 3000 pM
39 | B16 | 500 pM
40 | B17 | 30 pM
41 | B18 | 500 pM
42 | B19 | 300 pM
43 | B20 | 500 pM
44 | B21 | 1000 pM
45 | B22 | 400 pM
46 | B24 | 400 pM
